Data reported in patent US20110044986A1 (Amgen, published 2011).
Numbering of substitutions follows the chain as printed.

B1: antibody 1.7 (antibody, V domains shown)
VH: QVTLKESGPVLVKPTETLTLTCTVSGFSLSNARMSVSWIRQPPGKALEWLAHIFSNDEKSYSTSLKSRLTISKDTSKSQVVLTMTNMDPVDTATYYCARIRGTVGFDYWGQGTLVTVSS
VL: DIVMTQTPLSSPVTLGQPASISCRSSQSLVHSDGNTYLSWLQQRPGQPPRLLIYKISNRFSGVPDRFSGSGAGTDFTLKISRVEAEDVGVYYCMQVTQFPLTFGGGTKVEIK
notes: Human antibody from a Xenomouse hybridoma (IgG1 or IgG4 strains); also called Ab 1.7; human antibody 1.7
B2: antibody 1.1 (antibody, human IgG1, kappa, V domains shown)
VH: B1 VH with F106Y
VL: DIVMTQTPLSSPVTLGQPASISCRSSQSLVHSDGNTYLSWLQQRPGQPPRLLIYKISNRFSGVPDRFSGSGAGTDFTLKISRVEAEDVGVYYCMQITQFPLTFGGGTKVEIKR
notes: also called Ab 1.1; human antibody 1.1
B3: antibody 1.2 (antibody, human IgG1, kappa, V domains shown)
VH: QVTLKESGPVLLKPTETLTLTCTVSGFSLSNARMGVSWIRQPPGKALEWLAHIFSNDEKSYITSLKSRLTISKDTSKSQVVLTMTNMDPVDTATYYCARIPLRSPGAFDIWGQGTMVTVSS
VL: DIVMTQTPLSSPVTLGQPASISCRSSQSLVHSDGNTYLNWLQQRPGQPPRLLIYKISNRFSGVPDRFTGSGAGTDFTLKISRVEAEDVGVYTCMQVTQFPLTFGQGTRLEIKR
notes: also called Ab 1.2; human antibody 1.2
B4: antibody 1.9 (antibody, human IgG1, kappa, V domains shown)
VH: B3 VH with L12V, I62S, S76F
VL: B3 VL with D1E, G34R, N39S, T68S, T92Y, V96T, F99L, T107A
notes: also called Ab 1.9; human antibody 1.9
B5: antibody 7.28 (antibody, V domains shown)
VH: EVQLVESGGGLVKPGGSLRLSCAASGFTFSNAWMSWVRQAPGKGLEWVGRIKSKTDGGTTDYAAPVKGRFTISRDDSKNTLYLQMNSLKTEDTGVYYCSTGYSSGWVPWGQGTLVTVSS
VL: QSVLTQPPSVSAAPGQKVTISCSGSSSNIGNNYVFWYQQLPGTAPKLLIYDNNKRPSGIPDRFSGSKSGTSATLGITGLQTGDEADYYCGTWDSSLSAGVFGGGTKVTAL
notes: Human anti-Aβ antibody; also called Ab 7.28
B6: antibody 7.2 (antibody, V domains shown)
VH: QVQLVESGGGVVQPGRSLRLSCAASGFTFSSYGMHWVRQAPGKGLEWVAVIWYDGSNKYYADSVKGRFTISRDISKNTLYLQMNSLRAEDTAVYYCARSGPPLYSGIYYYYGMDVWGQGTTVTVSS
VL: SSELTQDPAVSVALGQTVRITCQGDSLRAYYAHWYQQKPGQAPVLVIYGKNNRPSGIPDRFSGSNSGNTASLTITGAQAEDEADYYCNSRDSSGNHVVFGGGTKLTVL
notes: Human anti-Aβ antibody; also called Ab 7.2
B7: antibody 1.15 (antibody, V domains shown)
VH: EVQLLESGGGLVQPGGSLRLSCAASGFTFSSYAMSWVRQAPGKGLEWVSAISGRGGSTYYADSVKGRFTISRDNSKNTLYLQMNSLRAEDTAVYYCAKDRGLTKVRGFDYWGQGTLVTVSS
VL: DVVMTQSPFSLPVTLGQPASISCRSSQSLVYSDGNTSLNWFQQRPGQSPRRLIYKVSKWDSGVPDRFSGSGSGTDFTLKISRVEAEDVGVYYCMQGTHWPRGFTFGPGTKVDIK
notes: Human anti-Aβ antibody
B8: antibody 1.14 (antibody, V domains shown)
VH: EVQLVESGGGLVQPGGSLRLSCAASGFTFSSYSMNWVRQAPGKGLEWVSYISRSSSAIYYADSVKGRFTISRDNAKNSLYLQMNSLRDEDTAVYYCARETTVTTRFYYYYYGVDVWGQGTTVTVSS
VL: DIQMTQSPSSVSASVGDRVTITCRASQGISSWLAWFQQKPGKAPKLLIYAASSLQSGVPSRFSGSGSGTDFTLTISSLQPEDFATYYCQQANSFPRTFGQGTKVEIK
notes: Human anti-Aβ antibody
B9: antibody 6.18 (antibody, V domains shown)
VH: B8 VH with V48L, R53S, S54R, A57T, T100R, V102G, F106Y, V113M
VL: B8 VL with F36S
notes: Human anti-Aβ antibody; also called Ab 6.18
B10: antibody 6.27 (antibody, V domains shown)
VH: QVQLQESGPGLVKPSKTLSLTCTVSGGSISSYYWSWIRQPAGKGLEWIGRIYTSGSTNLNPSLKSRVTMSIDTSKSQFSLKLSSVTAADTAVYYCARLELRNYYYGMDVWGQGTTVTVSS
VL: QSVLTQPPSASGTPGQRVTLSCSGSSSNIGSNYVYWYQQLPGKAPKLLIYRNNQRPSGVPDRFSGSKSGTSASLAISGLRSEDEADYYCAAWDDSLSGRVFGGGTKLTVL
notes: Human anti-Aβ antibody; also called Ab 6.27
B11: antibody 7.11 (antibody, V domains shown)
VH: QLQLQESGPGLVKPSETLSLTCTVSGGSISSSRYYWGWIRQPPGKGLEWIGSISYRGNTYYYPSLKSRVTISVDTSKNQFSLKLNSVTAADTAVYYCARRTYSSGWSYFDYWGQGTLVTVSS
VL: SYELTQPYSMSVATAQMARITCGGNNIGSKAVHWYQQKPGQDPVLVIYSDSNRPSGIPERFSGSNPGNTATLTISRIEAGDEANYYCQVWDSSSDHWVFGGGTKLTVL
notes: Human anti-Aβ antibody; also called Ab 7.11

What follows are binders tested against T1, human Aβ40 monomer (human) (assay: BIAcore, antibody captured on protein G, Aβ monomer injected).
T1 construct: also called soluble Aβ40
Procedure: (§1) Preparation of Biacore Chip Surfaces: Immobilization of Proteins to a BIAcore sensor chip (CM5) was performed according to manufacturer's instructions. Briefly, carboxyl groups on the sensor chip surfaces were activated by injecting 60 μL of a mixture containing 0.2 M N-ethyl-N′-(dimethylaminopropyl) carbodiimide (EDC) and 0.05 M N-hydroxysuccinimide (NHS). Specific surfaces were obtained by injecting rProtein G (Pierce), goat anti-mouse Fc (Jackson Immuno Research Lab) or Aβ aggregates diluted in 10 mM acetate, pH 4.0 at concentrations between 5 and 20 μg/mL. Excess reactive groups on the surfaces were deactivated by injecting 60 μL of 1 M ethanolamine. […] A blank, mock-coupled reference surface was also prepared on the sensor chips for background subtraction.
(§2) Kinetic analysis of Aβ monomers binding to protein G captured antibodies: The kinetic analysis of the interaction between Aβ monomers and antibodies was performed as follows: Antibodies to be tested were diluted in PBS+0.005% P-20+0.1 mg/mL BSA and injected over the immobilized protein G Fc surface. Aβ monomers were diluted in PBS+0.005% P-20+0.1 mg/mL BSA from 1000 nM to 2 nM, and each concentration was injected over the captured antibody surfaces.

T1 sequence (peptide, as listed by the source): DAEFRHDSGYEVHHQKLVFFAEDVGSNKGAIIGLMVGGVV

Kd [nM]	koff [s⁻¹]	kon [M⁻¹ s⁻¹]	Binder
> 200	–	–	B1
117	0.015	130000	B2
> 200	–	–	B3
> 200	–	–	B4

The binders below were run against T2, human Aβ42 monomer (human) in the same assay as above.
T2 construct: also called soluble Aβ42; monomeric Aβ42
Procedure: as §1, §2

T2 sequence (peptide, as listed by the source): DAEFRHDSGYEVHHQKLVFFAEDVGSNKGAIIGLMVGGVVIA

Kd [nM]	koff [s⁻¹]	kon [M⁻¹ s⁻¹]	Binder
> 20	–	–	B1
16	0.0039	240000	B2
14	0.0011	78000	B3
47	0.0029	61000	B4

The binders below were run against T3, Aβ42 oligomers (human) (assay: immunoprecipitation / Western blot).
T3 construct: Soluble oligomers prepared from Aβ42 peptide in Ham's F-12; dimer, trimer and tetramer were seen on the blot; also called soluble, oligomeric species of Aβ42; Aβ42 dimer, trimer, and tetramer

binding result	Binder
binds	B1
binds	B3

What follows are binders tested against T1, human Aβ40 monomer (assay: ELISA, monomer coated on plate, europium TRF).
Procedure: (§3) The same techniques were used for the coating of the microtiter plate for monomer ELISA. The fibrils Aβ monomer were diluted to 2.5 μg/ml in Coating buffer and mixed thoroughly. The solution was aliquoted into the wells of a microtiter plate [Immulon-2; VWR; Cat.# 62404-972] at 100 μl per well. The plate was sealed and incubated overnight at 4° C. The plate was washed 5-10× to remove Aβ coating solution prior to starting the assay.
(§4) The wells were blocked with 200 μl of blocking solution and incubated for ≧1 hour at room temperature (RT) with shaking. The blocking solution was flicked out and gently dried on a paper towel. 100 μl of primary antibody diluted in PBS containing 10% blocking solution was added to each well and the plate was incubated at RT for 1 hour with shaking. The plate was washed with 5-10× in TBS, pH 7.5+0.05% Tween 20. 100 μl of secondary antibodies (each diluted 1-2,000-fold in PBS) was added to each well and the plate was incubate at RT for 1 hour with shaking. The plate was washed with 5-10× in TBS, pH 7.5+0.05% Tween 20. 100 μl Streptavidin-Europium reagent (1-1,000-fold dilution) was added (100 μL/well) and the plate was incubated at room temperature for 45 minutes with shaking. The plate was washed 5-10× in TBS, pH 7.5+0.05% Tween 20. 120 μl Enhance Solution was added and the plate was incubated at room temperature for 15-30 minutes with shaking. The plate was read on a Victor TRF plate reader (Europium program).

EC50 [nM]	Binder
0.615	B1
0.054	B2
0.689	B3
0.042	B4

Each binder was assayed against T2, human Aβ42 monomer (assay: ELISA, monomer coated on plate, europium TRF).
Procedure: as §3, §4

EC50 [nM]	Binder
0.052	B1
0.045	B2
0.056	B3
0.037	B4

Each binder was assayed against amyloid plaques in unfixed Tg2576 mouse brain sections (human, UniProt P05067 672-713, limits assumed) (assay: cell-based or functional assay).

EC50 of ex vivo phagocytosis [µg/mL]	Binder
2	B1

These binders were tested against T4, human Aβ42 fibrils (human) (assay: BIAcore, fibrils immobilized, antibody injected (avidity)).
T4 construct: Fibrillar aggregate of the 42-residue peptide prepared in vitro; also called Fibrillar Aβ42; Aβ42 amyloid fibrils
Procedure: as §1
(§5) Kinetic analysis of antibodies binding to immobilized Aβ fibrils: Avidity measurements to Aβ fibrils were made by immobilizing amyloid fibrils on the sensor chip surface followed by injection of antibody solutions over the surface, and injection of antibody solutions over a blank surface for background subtraction. Antibodies were diluted in PBS+0.005% P-20+0.1 mg/mL BSA at concentrations varying from 100 nM to 0.2 nM.

Kd [nM]	koff [s⁻¹]	kon [M⁻¹ s⁻¹]	Binder
2.9	0.0005	170000	B1
0.8	0.00016	200000	B2
1.7	0.00019	170000	B3
1.8	0.00019	110000	B4

These binders were tested against T5, human Aβ40 fibrils (human) in the same assay as above.
T5 construct: Fibrillar aggregate of the 40-residue peptide prepared in vitro; also called Fibrillar Aβ40; Aβ40 amyloid fibrils
Procedure: as §1, §5

Kd [nM]	koff [s⁻¹]	kon [M⁻¹ s⁻¹]	Binder
0.1	0.00042	3.8e+06	B1
0.02	8.1e-05	4.2e+06	B2
0.06	0.00017	2.9e+06	B3
0.03	0.00017	5.3e+06	B4

These binders were tested against T4, human Aβ42 fibrils (assay: ELISA, fibrils dried on plate, europium TRF).
Procedure: (§6) The fibrils (Aβ or collagen) were diluted to 10 μg/ml in water and mixed thoroughly. The solution was aliquoted into the wells of a microtiter plate (Immulon-2; VWR; Cat # 62404-972) at 50 μl per well (resulting in 0.5 μg fibrils/well final). The plate was dried overnight by being placed uncovered in a 37° C. incubator.
as §4

EC50 [nM]	Binder
0.071	B1
0.082	B2
0.086	B3
0.096	B4

These binders were tested against T5, human Aβ40 fibrils (assay: ELISA, fibrils dried on plate, europium TRF).
Procedure: as §6, §4

EC50 [nM]	Binder
0.09	B1
0.133	B2
0.115	B3
0.195	B4

What follows are binders tested against T4, human Aβ42 fibrils (assay: BIAcore, fibrils immobilized, antibody injected).
Procedure: as §1, §5

koff [s⁻¹]	Binder
0.00021	B5
0.00029	B6
0.0011	B7
0.00087	B8
0.0026	B9
0.0021	B10
0.00049	B11

The binders below were run against T5, human Aβ40 fibrils (assay: BIAcore, fibrils immobilized, antibody injected).
Procedure: as §1, §5

koff [s⁻¹]	Binder
8.2e-05	B5
0.00014	B6
0.00096	B7
0.0013	B8
0.004	B9
0.005	B10
0.0008	B11
